Assay: PVA hydrogel durability in phosphate buffered saline pH 7.4, integrity checked by periodic inversion
Type: physicochemical
Conditions: additive at 10%; 4% borate; PBS pH 7.4, room temperature
Procedure: The effect of the PVA (99% hydrolysis rate; average molecular weight 100K) concentration on gel durability was evaluated by first aliquotting 0.2 mL of a 4% borate solution into bottom of 14 mL tube. Then 1.8 mL of various PVA solutions of 2-5% concentrations were added by vigorous injection through a 3 mL syringe with an 18G needle. Three tubes were prepared for of each concentration and cured at room temperature for one hour to insure complete polymerization. 8 mL of phosphate buffered saline, pH 7.4, were added to each tube, covered and incubated at room temperature. The integrity of the gels was checked by periodic inversion.
The effect of additives on the durability of the PVA gel (99% hydrolysis rate; average molecular weight 100K) was evaluated by first aliquotting 0.2 mL of a 4% borate solution into bottom of 14 mL tube. Then 1.8 mL of PVA (5%) and additive containing solutions of 2-5% concentrations were added by vigorous injection through a 3 mL syringe with an 18G needle. Three tubes were prepared for of each concentration and cured at room temperature for one hour to insure complete polymerization. 8 mL of phosphate buffered saline, pH 7.4, were added to each tube, covered and incubated at room temperature. The integrity of the gels was checked by periodic inversion. […]

albumin
Effect of additive on durability of 5% PVA hydrogels: increase the durability
